Experimental findings from article PMC11161652, “ASXLs binding to the PHD2/3 fingers of MLL4 provides a mechanism for the recruitment of BAP1 to active enhancers” (Nature Communications, 2024) are described below.

For orientation: Kd means the free concentration of one partner at which half of the binding sites on the other are occupied at equilibrium, for simple one-to-one binding.

B1: PHD2 and PHD3 fingers of human MLL4 (aa 227-324) [human] / ASXL2 peptide (residues 650-670 of ASXL2) [human] (parent complex)
chain 1: ARCAVCEGPGELCDLFFCTSCGHHYHGACLDTALTARKRAGWQCPECKVCQACRKPGNDSKMLVCETCDKGYHTFCLKPPMEELPAHSWKCKACRVCR
chain 2: NRTGARTLADIKAKAQLVKAQ

Variants of B1 are the subject of the first experiment. Kind of experiment: fluorescence spectroscopy.
As to chain 2 NRTGAITLADIKAKAQLVKAQ, the Kd was 11 µM.

Another experiment covers variants of B1. Put plainly: fluorescence spectroscopy. The source holds these as a separate data set.
With chain 1 ARCAVCEGPGELCDLFFCTSCGHHYHGACLDTALTARKRAGWQCPECKVCQACRKPGNDSKMLVCKTCDKGYHTFCLKPPMEELPAHSWKCKACRVCR, the Kd is 10 µM.
